From patent publication US20230227534A1, “METHOD FOR GENERATING VARIANTS OF A PROTEIN” (ECOLE POLYTECHNIQUE FEDERALE DE LAUSANNE (EPFL), priority 2019, published 2023)

Test system: transducin
Assay: transducin activation by designed opsin mutants (constitutive and light-induced activity)
Assay type: biochemical
Conditions: data not shown

Molecule | rate of transducin activation (compared to M257Y alone) | constitutive activity compared to WT opsin | constitutive activity as share of the light-induced maximal activity
M257Y.I305A: opsin (rhodopsin) double mutant, M257Y on TMH6 and I305A on TMH7 (protein, UniProt P02699 1-348, looked up, variant M257Y I305A) Rhodopsin: MNGTEGPNFYVPFSNKTGVVRSPFEAPQYYLAEPWQFSMLAAYMFLLIMLGFPINFLTLYVTVQHKKLRTPLNYILLNLAVADLFMVFGGFTTTLYTSLHGYFVFGPTGCNLEGFFATLGGEIALWSLVVLAIERYVVVCKPMSNFRFGENHAIMGVAFTWVMALACAAPPLVGWSRYIPEGMQCSCGIDYYTPHEETNNESFVIYMFVVHFIIPLIVIFFCYGQLVFTVKEAAAQQQESATTQKAEKEVTRMVIIYVIAFLICWLPYAGVAFYIFTHQGSDFGPIFMTIPAFFAKTSAVYNPVAYIMMNKQFRNCMVTTLCCGKNPLGDDEASTTVSKTETSQVAPA | higher | much larger | 
M257Y: opsin (rhodopsin) mutant, M257Y on TMH6 (protein, UniProt P02699 1-348, looked up, variant M257Y) Rhodopsin: MNGTEGPNFYVPFSNKTGVVRSPFEAPQYYLAEPWQFSMLAAYMFLLIMLGFPINFLTLYVTVQHKKLRTPLNYILLNLAVADLFMVFGGFTTTLYTSLHGYFVFGPTGCNLEGFFATLGGEIALWSLVVLAIERYVVVCKPMSNFRFGENHAIMGVAFTWVMALACAAPPLVGWSRYIPEGMQCSCGIDYYTPHEETNNESFVIYMFVVHFIIPLIVIFFCYGQLVFTVKEAAAQQQESATTQKAEKEVTRMVIIYVIAFLICWLPYAGVAFYIFTHQGSDFGPIFMTIPAFFAKTSAVYNPVIYIMMNKQFRNCMVTTLCCGKNPLGDDEASTTVSKTETSQVAPA |  | much larger | 
K231E.E232I.T251R: opsin (rhodopsin) ICL3 triple mutant (protein, UniProt P02699 1-348, looked up, variant K231E E232I T251R) Rhodopsin: MNGTEGPNFYVPFSNKTGVVRSPFEAPQYYLAEPWQFSMLAAYMFLLIMLGFPINFLTLYVTVQHKKLRTPLNYILLNLAVADLFMVFGGFTTTLYTSLHGYFVFGPTGCNLEGFFATLGGEIALWSLVVLAIERYVVVCKPMSNFRFGENHAIMGVAFTWVMALACAAPPLVGWSRYIPEGMQCSCGIDYYTPHEETNNESFVIYMFVVHFIIPLIVIFFCYGQLVFTVEIAAAQQQESATTQKAEKEVRRMVIIMVIAFLICWLPYAGVAFYIFTHQGSDFGPIFMTIPAFFAKTSAVYNPVIYIMMNKQFRNCMVTTLCCGKNPLGDDEASTTVSKTETSQVAPA |  | dramatically increased | higher than 40%
